Experiment [1] addresses VIR13 (Neurovita 1) (rabies virus).
For experiment [2] the target is unchanged. The experiment is described as follows: method not restated in the table; ITC per paragraph 50.

This passage reports Kd results from patent US20140315822A1 (INSTITUT PASTEUR, published 2014).

Where two headings read alike, the source gives them in different places.

B1: PDZ domain of the human MAST2 protein (other)
chain: MRPPIIIHRAGKKYGFTLRAIRVYMGDSDVYTVHHMVWHVEDGGPASEAGLRQGDLITHVNGEPVHGLVHTEVVELILKSGNKVAISTTPLEN
As for B1, in the experiment with VIR13 (Neurovita 1) [1], the Kd was 1.26 µM. This lies in the single-digit micromolar range.

B2: PDZ domain of the human PTPN4 protein (other)
chain: SSPEKPTPNGGIPHDNLVLIRMKPDENGRFGFNVKGGYDQKMPVIVSRVAPGTPADLCVPRLNEGDQVVLINGRDIAEHTHDQVVLFIKASCERHSGELMLLVRPN
notes: domain: PDZ domain
In the experiment with VIR13 (Neurovita 1) [2], B2 yielded a Kd of 560 µM.
